The values below come from patent US20210347873A1 (SHANGHAI PHARMAEXPLORER, published 2021).

Test [1] concerns the target T1, human APRIL protein (human, UniProt O75888 105-250, limits assumed).
T1 construct: Bought protein; also called recombinant APRIL protein
T1 sequence (looked up): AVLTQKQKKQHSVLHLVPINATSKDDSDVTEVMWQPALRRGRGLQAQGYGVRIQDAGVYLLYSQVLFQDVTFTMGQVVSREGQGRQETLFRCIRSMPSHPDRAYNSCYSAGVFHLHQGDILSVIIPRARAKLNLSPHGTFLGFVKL
Kind of test: ELISA, coated APRIL; antibody 13.3 nM. The procedure: (§1) To test whether the BLyS antibody cross-reacted with human APRIL protein, APRIL protein (purchased from R & D Systems) was first diluted to a final concentration of 1.0 μg/mL with PBS, and then 50 μL of which per well was aliquoted into a 96-well ELISA plate, and the plate was subsequently sealed with plastic film and incubated at 4° C. overnight. On the next day the plate was rinsed four times with the plate washing buffer [PBS buffer containing 0.0500 (v/v) Tween20] and a blocking solution [PBS buffer containing 0.05 (v/v) Tween20 and 1 (w/w) BSA] was added, then the protein was blocked at 37° C. for 2 hours. The blocking solution was removed and 100 μL per well of the lead antibodies prepared in Embodiment 1 and 2 were added in. After incubation for 1 hour at 37° C., the plate was rinsed four times with the plate washing buffer [PBS buffer containing 0.05 (v/v) Tween20]. HRP-labeled (horseradish peroxidase) secondary antibody (purchased from Sigma) was added in and incubated at 37° C. for 1 hour. The plate was then rinsed four times with the plate washing buffer [PBS buffer containing 0.050 (v/v) Tween20]. 100 μL of TMB substrate was aliquoted into each well and after incubation at room temperature for 5 minutes, 100 μL of stop solution (1.0 N HCl) was aliquoted into each well. A₄₅₀ₙₘ values were read via an ELISA plate reader (SpectraMax M5e purchased from Molecular Devices) and the results were shown in FIGS. 6A-6B and Table 11. […] As used herein, the IgG control is human IgG and the data in the table is GD number at 450 nm.

In test [2] the target is T1, human APRIL protein. The experiment in a line: ELISA, coated APRIL; antibody 2.67 nM. As to the method:
as §1

For test [3], the target named is T1, human APRIL protein. The experiment in a line: ELISA, coated APRIL; antibody 66.7 nM. As to the method: as §1
For test [4], the target named is T1, human APRIL protein. The experiment in a line: ELISA, coated APRIL; antibody 0.107 nM. The procedure: as §1
Test [5] concerns the target T1, human APRIL protein. The experiment in a line: ELISA, coated APRIL; antibody 0.534 nM. As to the method: as §1
The target of test [6] is T1, human APRIL protein. The experiment in a line: ELISA, coated APRIL; antibody 0.0213 nM. The procedure: as §1
For test [7], the target named is T1, human APRIL protein. Kind of test: ELISA, coated APRIL; antibody 0.00427 nM. As to the method:
as §1

In test [8] the target is T1, human APRIL protein. The experiment in a line: ELISA, coated APRIL; antibody 0 nM (blank). As to the method:
as §1

B1: 20D1B6E9E5 (antibody, V domains shown)
VH: EVQLQQSVAELVRPGASVKLSCTASDFNIKNTYIHWVKQRPEQGLEWIGRIDPVNGNTKYAPKFQDKATIIVDTYSNTAYLQLSSLASEDTAVYYCARWPITTIVATDWYFDVWGTGTTVTVSS
VL: DVLMTQTQLALPVRLGEQASISCRSSQSIVNSNGNTYLEWYLQKPGQSPKLLIYKVSNRFSGVPDRFSGSGSGTDFTLKISRVEAEDLGVYYCFQGSHVPWTFGGGTKLEIK
Regarding B1, the OD450 nm with human APRIL protein [1] came to 0.257; with human APRIL protein [2], 0.0775; with human APRIL protein [3], 0.942; in the test with human APRIL protein [4], 0.0543; with human APRIL protein [5], 0.0611; with human APRIL protein [6], 0.0546. In addition, the OD450 nm with human APRIL protein [7] stood at 0.0535; with human APRIL protein [8], 0.055.

B2: 93C6F10D3 (antibody, V domains shown)
VH: EVQLVESGGGLVTPGGSLKLSCVASGFAFSTYGMSWVRQTPERRLEWVAYISGGGGSIYYPDSVKGRFTISRDNAKNILYLQMSSLKSEDTAMYHCTRHPDLLLRYDYALDHWGQGTSVTVSS
VL: DIQMTQSPASLSASVGETVTITCRASENIHIYLAWYQQKQGKSPQLLVYNGKTLADGVPSRFSGSGSGTQYSLKINTLQPEDFGNYYCQHFWNSTWTFGGGTKLEIK
In the case of B2, the OD450 nm turned out to be 0.171 with human APRIL protein [1]; 0.0746 with human APRIL protein [2]; 0.57 with human APRIL protein [3]; 0.0551 in the test with human APRIL protein [4]; 0.0584 in the test with human APRIL protein [5]; 0.0568 in the test with human APRIL protein [6]. Besides, the OD450 nm with human APRIL protein [7] is 0.0546; with human APRIL protein [8], 0.0568.

B3: 97E7B3F2 (antibody, V domains shown)
VH: EVQLQQSGPELVKSGASVKISCKASGYTFTDHKMHWVKQSHGKSLEWIGYISPYNGGTGYNQKFKSKVTLTVDISSSTAYMELRSLTSEDSAVYYCARWGFYDVMDSWGQGTSVTVSS
VL: DVLLTQTPLSLPVSLGDQASISCRSSQTIVHIIGDTYLEWYLQKPGQSPKLLIYKVSNRFSGVPDRFSGSGAGTDFTLKISRVEAEDLGVYYCFQGSHVPRTFGGGTKLEIK
For the molecule B3, the OD450 nm in the test with human APRIL protein [1] amounted to 0.182; in the test with human APRIL protein [2] it was 0.0707; with human APRIL protein [3] it was 0.62; with human APRIL protein [4], 0.0705; with human APRIL protein [5], 0.0556; in the test with human APRIL protein [6], 0.0537. Moreover, the OD450 nm with human APRIL protein [7] was 0.0535; with human APRIL protein [8], 0.0533.
